Source: patent US20100310590A1
Changes are numbered by the printed parent chain.

B1: SEQ ID NO:4 (protein)
chain: MSWQTYVDEHLMCDIDGQASNSLASAIVGHDGSVWAQSSSFPQFKPQEITGIMKDFEEPGHLAPTGLHLGGIKYMVIQGEAGAVIRGGEGSGGITIKKTGQALVFGIYEEPVTPGQCNMVVERLGDYLIDQGL
B2: SEQ ID NO:3 (protein)
chain: B1 chain with K45T, G88K, E89K
B3: wild-type Bet v 2 allergen (SEQ ID NO:1) (protein)
chain: B1 chain with G88K, E89K
B4: SEQ ID NO:2 (protein)
chain: B1 chain with S39A, G88K, E89K
B5: SEQ ID NO:6 (protein)
chain: B1 chain with S39A

These binders were tested against IgEs from a serum pool of patients allergic to birch pollen (RAST 3+ and 4+ to Bet v 2) (human) (assay: REAST inhibition: serum pool pre-incubated with inhibitor, IgE captured on anti-IgE plate, biotinylated Bet v 2 detection).

Going from B1 to B2, the percent inhibition of Bet v 2 wt binding to IgE at 1.45 ng inhibitor rises from 13.4% to 71%.

First: B3
Second: B4
The percent inhibition of Bet v 2 wt binding to IgE at 1.45 ng inhibitor of the first is higher: 82.6% for the first, 40.4% for the second.

B5 gave a percent inhibition of Bet v 2 wt binding to IgE at 1.45 ng inhibitor of 8.8%.
